Test results published in paper PMC5472792, “Bub1 positions Mad1 close to KNL1 MELT repeats to promote checkpoint signalling” (Nature Communications, 2017).
Numbering of substitutions follows the chain as printed.

How the values were obtained:
[1] = system: Bub1 and KNL1; test: BioID proximity biotinylation; assay type: cell-based, human
Text: We speculated that CD1 might engage in a protein-protein interaction that is critical for checkpoint signalling. Mad1 appeared to be the only core component of the checkpoint for which we could see an effect of removing the CD1 on its kinetochore levels (Supplementary Fig. 1 for Cdc20 and ref. [33] for BubR1, Mad1). However, an interaction between human Mad1 and Bub1 cannot be detected in immunoprecipitation experiments. To determine whether there was an interaction between human Mad1 and Bub1, we first developed an assay for looking at transient and/or weak Mad1 interactions in vivo. […] The purification and detection of biotinylated proteins were highly robust and we detected multiple Mad1 peptides upon addition of biotin, as expected (Supplementary Fig. 5C). Using a quantitative mass spectrometry SILAC approach allowed us to compare the proximity of proteins to the N terminus versus the C terminus of Mad1. […]
Figure 3 Bub1 directly interacts with Mad1. (a) Nocodazole arrested HeLa cells stably expressing the indicated Mad1-BirA or BirA-Mad1 fusion protein at near endogenous levels were analyzed 16 h after induction with doxycyclin with or without exposure to 25 μM biotin. […] Bound Bub1 protein was detected by blotting for FLAG. (e) Quantification of three independent experiments as in d with WT binding set to 1. […]

[2] = system: GST-Bub1 425–500; test: In vitro phosphorylation of GST-Bub1, mass spectrometry; assay type: biochemical, human
Experimental: To identify mitotic kinases able to phosphorylate Bub1 on Ser459 and Thr461 we performed in vitro phosphorylation assays with candidate kinases.
A similar set-up was used for analysing the phosphorylated GST-Bub1 except that an EASY-nLC 1200 UHPLC system connected to an Orbitrap Q-Exactive HF was used and the acetonitrile gradient was run for 77 min. The samples were analysed using a ‘fast' acquisition mode with a normalized collision energy (NCE) of 25 and raw data analysed with MaxQuant software suit version 1.5.7.4.
GST- Bub1 (425–500) was expressed in BL21(DE3) cells at 18 °C overnight with 0.5 mM IPTG in the medium. The bacteria were lysed in 50 mM Tris-HCl pH 7.4, 300 mM NaCl, 10% glycerol, 5 mM β-mercaptoethanol, 1 mM PMSF, plus Complete-EDTA free protease inhibitors (Roche) using a high pressure homogenizer. Lysates were cleared by centrifugation and incubated with pre-equilibrated Glutathione-Fast Flow (GE Healthcare) beads for 2 h at 4 °C and eluted with GST-elution buffer at room temperature (50 mM Tris pH 8.8, 300 mM NaCl, 10% glycerol, 5 mM β-mercaptoethanol, 20 mM reduced glutathione). Elutions were pooled and run on Superdex 200 column (GE Healthcare) in PBS with 8.7% glycerol and 5 mM mercaptoethanol. Peak fractions were aliquoted and stored at −80 °C.
500 μM ATP and 125 nM Calyculin A (Cell Signaling) were added and the reactions were incubated at 30 °C for 1 h. Controls were incubated in kinase buffer and Calyculin A only. 6 μg of phosphorylated protein was resolved on NuPAGE Novex 4–12% Bis-Tris protein gels, which were fixed and stained by Colloidal Blue Staining (Thermo Scientific). The band corresponding to GST-Bub1 was cut out and analysed by mass spectrometry.

[3] = GST-Bub1 425-500, 30 °C for 1 h, 500 μM ATP, LC-MS, kinase-free control 0

B1: Mad1-BirA: promiscuous biotin ligase BirA fused to the C terminus of Mad1 (protein)
chain: MEDLGENTMVLSTLRSLNNFISQRVEGGSGLDISTSAPGSLQMQYQQSMQLEERAEQIRSKSHLIQVEREKMQMELSHKRARVELERAASTSARNYEREVDRNQELLTRIRQLQEREAGAEEKMQEQLERNRQCQQNLDAASKRLREKEDSLAQAGETINALKGRISELQWSVMDQEMRVKRLESEKQELQEQLDLQHKKCQEANQKIQELQASQEARADHEQQIKDLEQKLSLQEQDAAIVKNMKSELVRLPRLERELKQLREESAHLREMRETNGLLQEELEGLQRKLGRQEKMQETLVGLELENERLLAKLQSWERLDQTMGLSIRTPEDLSRFVVELQQRELALKDKNSAVTSSARGLEKARQQLQEELRQVSGQLLEERKKRETHEALARRLQKRVLLLTKERDGMRAILGSYDSELTPAEYSPQLTRRMREAEDMVQKVHSHSAEMEAQLSQALEELGGQKQRADMLEMELKMLKSQSSSAEQSFLFSREEADTLRLKVEELEGERSRLEEEKRMLEAQLERRALQGDYDQSRTKVLHMSLNPTSVARQRLREDHSQLQAECERLRGLLRAMERGGTVPADLEAAAASLPSSKEVAELKKQVESAELKNQRLKEVFQTKIQEFRKACYTLTGYQIDITTENQYRLTSLYAEHPGDCLIFKATSPSGSKMQLLETEFSHTVGELIEVHLRRQDSIPAFLSSLTLELFSRQTVA
modifications: left off: BirA, C-terminal, kept
[1]; SILAC mass spectrometry, single experiment, and western blot
  biotinylation of Bub1, BubR1 and Cdc20 (proximity), Mad1-BirA vs BirA-Mad1: more efficiently labelled with biotin

B2: MAD1 EFR/AAA: Mad1-BirA with Glu710, Phe712 and Arg714 mutated to Ala (protein)
chain: B1 chain with E710A, F712A, R714A
modifications: left off: BirA, C-terminal, kept
notes: Mad1-BirA with Glu710, Phe712 and Arg714 mutated to Ala
[1]; nocodazole arrested HeLa, 25 μM biotin, western blot, representative of two independent experiments
  biotinylation of Bub1 and KNL1: did not affect the biotinylation of Bub1 and KNL1

B3: Mps1: purified kinase (Life Technologies) (protein, UniProt P33981 1-857, looked up)
Dual specificity protein …: MESEDLSGRELTIDSIMNKVRDIKNKFKNEDLTDELSLNKISADTTDNSGTVNQIMMMANNPEDWLSLLLKLEKNSVPLSDALLNKLIGRYSQAIEALPPDKYGQNESFARIQVRFAELKAIQEPDDARDYFQMARANCKKFAFVHISFAQFELSQGNVKKSKQLLQKAVERGAVPLEMLEIALRNLNLQKKQLLSEEEKKNLSASTVLTAQESFSGSLGHLQNRNNSCDSRGQTTKARFLYGENMPPQDAEIGYRNSLRQTNKTKQSCPFGRVPVNLLNSPDCDVKTDDSVVPCFMKRQTSRSECRDLVVPGSKPSGNDSCELRNLKSVQNSHFKEPLVSDEKSSELIITDSITLKNKTESSLLAKLEETKEYQEPEVPESNQKQWQSKRKSECINQNPAASSNHWQIPELARKVNTEQKHTTFEQPVFSVSKQSPPISTSKWFDPKSICKTPSSNTLDDYMSCFRTPVVKNDFPPACQLSTPYGQPACFQQQQHQILATPLQNLQVLASSSANECISVKGRIYSILKQIGSGGSSKVFQVLNEKKQIYAIKYVNLEEADNQTLDSYRNEIAYLNKLQQHSDKIIRLYDYEITDQYIYMVMECGNIDLNSWLKKKKSIDPWERKSYWKNMLEAVHTIHQHGIVHSDLKPANFLIVDGMLKLIDFGIANQMQPDTTSVVKDSQVGTVNYMPPEAIKDMSSSRENGKSKSKISPKSDVWSLGCILYYMTYGKTPFQQIINQISKLHAIIDPNHEIEFPDIPEKDLQDVLKCCLKRDPKQRISIPELLAHPYVQIQTHPVNQMAKGTTEEMKYVLGQLVGLNSPNSILKAAKTLYEHYSGGESHNSSSSKTFEKKRGKK
[2]; [3]
  intensity of phospho-peptide 456-VQPS(Phos)PTVHTK (pS459): 0
  intensity of phospho-peptide 456-VQPSPT(Phos)VHTK (pT461): 7,84 E+08
[2]; Ser459 and Thr461, mass spectrometry
  phosphorylation of GST-Bub1 425–500 (in words): phosphorylation of Thr461 but no phosphorylation on Ser459
